In patent publication US10287344B2, “Methods for reducing global chronic inflammation and the presence of melanoma” (Mayo Foundation for Medical Education and Research, priority 2008, dated 2019):

System: PBMC from healthy donors
Assay: VEGF mediated Th1/Th2 polarity: PBMC stimulated 3 days with CD3/CD28 expander beads, intracellular IFN-γ/IL-4 in CD4+ T-cells
Format: cell-based, human
Conditions: 10 μg/mL IL-12 added to culture containing 16 pg/mL of VEGF
Description: PBMC (A) isolated from healthy donors were stimulated with PMA and ionomycin in the presence of brefeldin-A, permeabolized, and intracellularly stained for human IFN-γ (FITC) and human IL-4 (PE). PBMC were exposed to increasing concentrations of VEGF ([…]) without/with IL-12. All cells were immunostained with PC5 anti-human CD4. Purified CD4+ T-cells (B) were negatively isolated using Miltenyi beads, cultured, and stained in the same fashion as PBMC (A).
To determine the effect of VEGF on Th1 and Th2 polarity, PBMC from healthy donors were stimulated for 3 days with CD3/CD28 expander beads (Invitrogen Oslo, Norway) with and without increasing doses of recombinant VEGF (1-16 pg/mL). Cells were also cultured with 10 μg/mL recombinant human IL-12 (R and D Systems, Minneapolis, Minn.) or 8 μg/mL of a monoclonal anti-human IL-12 (R and D Systems Minneapolis, Minn. clone #24910). […]
In addition, healthy donor PBMC were stimulated with CD3^+/CD28^+ expander micro-beads for 3 days with increasing concentrations (1 pg/mL-16 pg/mL) of recombinant VEGF and assessed intracellular cytokine production of IL-4 (Th2 cytokine) and IFN-γ (Th1 cytokine) in CD4^+ T-cells at the end of in vitro culture (FIG. 8a).

B1: IL-12: recombinant human IL-12 (R and D Systems) (protein, UniProt P29459 23-219; P29460 23-328, looked up)
Interleukin-12 subunit alpha: RNLPVATPDPGMFPCLHHSQNLLRAVSNMLQKARQTLEFYPCTSEEIDHEDITKDKTSTVEACLPLELTKNESCLNSRETSFITNGSCLASRKTSFMMALCLSSIYEDLKMYQVEFKTMNAKLLMDPKRQIFLDQNMLAVIDELMQALNFNSETVPQKSSLEEPDFYKTKIKLCILLHAFRIRAVTIDRVMSYLNAS
Interleukin-12 subunit beta: IWELKKDVYVVELDWYPDAPGEMVVLTCDTPEEDGITWTLDQSSEVLGSGKTLTIQVKEFGDAGQYTCHKGGEVLSHSLLLLHKKEDGIWSTDILKDQKEPKNKTFLRCEAKNYSGRFTCWWLTTISTDLTFSVKSSRGSSDPQGVTCGAATLSAERVRGDNKEYEYSVECQEDSACPAAEESLPIEVMVDAVHKLKYENYTSSFFIRDIIKPDPPKNLQLKPLKNSRQVEVSWEYPDTWSTPHSYFSLTFCVQVQGKSKREKKDRVFTDKTSATVICRKNASISVRAQDRYYSSSWSEWASVPCS
- shift in T-helper polarity in culture containing VEGF: prevented the shift in T-helper polarity from Th1 to Th2
